Tested on: T1, NC(=O)NC(N)=O
T1 construct: six-histidine tag (C); made in house; host or cells: Escherichia coli BL21(DE3)
Experiment: Inhibition of biuret hydrolase by urea, kinetic constants
Type: biochemical

Chain of biuret hydrolase (Rhizobium johnstonii 3841) (chain, as listed by the source): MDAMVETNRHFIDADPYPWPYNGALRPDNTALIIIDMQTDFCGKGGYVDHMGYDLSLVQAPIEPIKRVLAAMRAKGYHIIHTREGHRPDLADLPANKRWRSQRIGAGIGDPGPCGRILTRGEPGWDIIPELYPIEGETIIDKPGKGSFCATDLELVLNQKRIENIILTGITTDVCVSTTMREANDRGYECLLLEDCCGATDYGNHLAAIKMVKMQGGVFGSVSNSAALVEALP

Q: How did the Km turn out when “biuret hydrolase (Rhizobium johnstonii 3841)” was run?
A: The Km was 23 µM.

Reference: patent publication US20220389465A1, “METHODS OF REDUCING BIURET IN UREA COMPOSITIONS” (Regents of the University of Minnesota, priority 2019, published 2022)
